Data from IntAct's records for PubMed 26635368.

How the values were obtained:
spre1_human SPRED1 [1] = biological target: spre1_human SPRED1 (UniProt Q7Z699)
spre1_human SPRED1 [2] = biological target: spre1_human SPRED1 (UniProt Q7Z699); remark: listed apart in the source

Chain of spre1_human SPRED1 (Q7Z699 whole entry): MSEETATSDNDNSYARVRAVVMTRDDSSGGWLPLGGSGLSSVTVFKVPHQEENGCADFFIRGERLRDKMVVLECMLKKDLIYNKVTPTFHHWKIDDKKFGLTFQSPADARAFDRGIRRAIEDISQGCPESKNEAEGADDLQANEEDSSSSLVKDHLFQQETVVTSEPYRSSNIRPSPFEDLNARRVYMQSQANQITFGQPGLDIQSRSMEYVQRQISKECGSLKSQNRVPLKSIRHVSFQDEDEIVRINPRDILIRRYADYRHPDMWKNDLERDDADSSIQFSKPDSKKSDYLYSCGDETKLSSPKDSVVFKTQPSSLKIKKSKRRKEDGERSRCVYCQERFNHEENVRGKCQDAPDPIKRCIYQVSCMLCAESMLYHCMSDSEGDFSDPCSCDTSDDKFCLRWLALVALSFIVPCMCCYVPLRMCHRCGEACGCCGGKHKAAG

effect of a mutation on the interaction (spre1_human SPRED1 [1])	effect of a mutation on the interaction (spre1_human SPRED1 [2])	Substance
with no effect		Neurofibromin (Homo sapiens), P21359 R1204G
	with no effect	Neurofibromin (Homo sapiens), P21359 R1276P
decreasing interaction strength		Neurofibromin (Homo sapiens), P21359 L1208W
with no effect		Neurofibromin (Homo sapiens), P21359 A1202S
	decreasing interaction strength	Neurofibromin (Homo sapiens), P21359 L1511P
with no effect		Neurofibromin (Homo sapiens), P21359 Q1515R
with no effect		Neurofibromin (Homo sapiens), P21359 G1519E
disrupting interaction strength	decreasing interaction strength	Neurofibromin (Homo sapiens), P21359 D1217G
with no effect		Neurofibromin (Homo sapiens), P21359 L1211R
decreasing interaction strength		Neurofibromin (Homo sapiens), P21359 R1204L
decreasing interaction strength		Neurofibromin (Homo sapiens), P21359 R1204W
